The values below come from PMC4608048.

The target in the experiment is UbcH10^LR (as used in surface plasmon resonance) (human). As to the kind of experiment: SPR.

On to “APC/C^Cdh1.Hsl1 (from UniProt Q9H1A4;Q9UJX6;P30260;Q9UJX5;Q9UJX4;Q13042;Q9UJX3;Q9UJX2;Q9UM13;Q9NYG5;Q8NHZ8;Q9BS18;P60006;Q96DE5;Q9UM11-2;P34244) (complex)”, for which the K^kin d (fast) turned out to be 24 nM, the K^kin d (slow) was 23 nM, the koff (fast) was 0.04 s⁻¹ and the koff (slow) is 0.0046 s⁻¹. This substance returned a kon (fast) of 1.7e+06 M⁻¹ s⁻¹ and a kon (slow) of 170000 M⁻¹ s⁻¹.
